Target: T1, FL-RING1A (1–406aa), recombinant (human, UniProt Q06587 1-406)
T1 construct: Human RING1A, full length, residues 1-406; Subcloned into the bacterial expression 1GFP vector (Addgene #29663, the vector's id); purification as in Hambarde et al., 2021 with other buffers; also called RING1A-FL; Human FL-RING1A; source: bacterial expression vector, purified (HisTrap, TEV cleavage, Superdex 75)
T1 sequence (looked up): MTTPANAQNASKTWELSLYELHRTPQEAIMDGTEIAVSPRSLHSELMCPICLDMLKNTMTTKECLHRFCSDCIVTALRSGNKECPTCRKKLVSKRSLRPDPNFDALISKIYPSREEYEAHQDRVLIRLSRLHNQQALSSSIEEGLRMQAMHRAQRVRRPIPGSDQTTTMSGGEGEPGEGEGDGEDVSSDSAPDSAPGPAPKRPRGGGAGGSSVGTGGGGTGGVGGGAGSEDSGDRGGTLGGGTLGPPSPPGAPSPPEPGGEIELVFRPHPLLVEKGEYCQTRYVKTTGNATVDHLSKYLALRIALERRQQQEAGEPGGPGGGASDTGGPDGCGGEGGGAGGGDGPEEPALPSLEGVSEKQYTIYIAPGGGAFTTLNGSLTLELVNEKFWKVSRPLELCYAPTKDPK
Assay: pull-down; FL-RING1A incubated with His6-CSD HP1β at molar ratio 1:2 in buffer H (20 mM Tris pH 8, 70 mM NaCl, 5% glycerol, 5 mM BME, 100 µM ZnCl2) on ice for 20 min; Ni-NTA resin, elution with 300 mM imidazole; SDS-PAGE and western blot
Details: both partners purified

binding result: binds
B1: His6-CSD HP1β (80–185aa), recombinant (domain or fragment)
chain: not shown
notes: HP1β residues 80-185 (hinge part and chromo shadow domain); 'Human' is printed before the two constructs of the sentence; Subcloned into the bacterial expression 1B vector (Addgene #29653, the vector's id); source: bacterial expression vector, purified (HisTrap, Superdex 75)
